This note sets out measurements from the DeepSol protein solubility set.

The nature of this series: soluble on expression in E. coli; label from the status in PepcDB or PDB records.
Regarding “MAKLVTENISKRFKNQDVLKHINITLENNEVYGLLGINGAGKTTLMKIICGILQQDSGEIKLDNRPMTRNDLHKVGSLIETPATYNHLSAQDNLKIVCLNESVDFSEINSVLSLVNLNVDKKKKVKDFSLGMKQRLGIAMALIKKPEILVLDEPSNGLDPYGIQELRELLKLLTEQGTSIIISSHILSEIQVLADHIGIIHEGELKYQQRNNKDENLEEIFFKITKGDYK”, the “soluble on expression in E. coli” value is given as “not soluble”.
On to “MNAPRCLRRLLERQWRQGGWLSTLLRPLAALTGLVVARKRNAYLTGARAAWRAPVPVVVVGNIYVGGTGKTPVVIEVVRQLQARGWTPGVVSRGYGVDVGAAPRVGQGQLAAADYGDEPALIARATGAAIAVHPHRPRAVQALLRAHPGVDVVVSDDGLQHLALARDVEIVVQDERGVGNGRLLPAGPLREPAQRLADVDAIVTNAGRPRAAAAPAAGAPRQLAMWLEPTHAQRVTDGATRTLADLAALPPARLAAAAGIGNPARFFQTLEQAGIRPAHTLALPDHYAYAQSPFTALDADLILVTAKDAIKCAALDDPRLWAVQVGTRLSDPDFGDWLSATLRARQPKLAAALEHHHHHH”, for which the “soluble on expression in E. coli” value is reported as “not soluble”.
On to “APVPTYQTLIVRPGDLQQSVLATGKLDALRKVDVGAQVSGQLKTLSVAIGDKVKKDQLLGVIDPEQAENQIKEVEATLMELRAQRQQAEAELKLARVTYSRQQRLAQTQAVSQQDLDNAATEMAVKQAQIGTIDAQIKRNQASLDTAKTNLDYTRIVAPMAGEVTQITTLQGQTVIAAQQAPNILTLADMSAMLVKAQVSEADVIHLKPGQKAWFTVLGDQLTRYEGQIKDVLPTPEKVNDAIFYYARFEVPNPNGLLRLDMTAQVHIQLTDVKNVLTIPLSALGDPVGDNRYKVKLLRNGETREREVTIGARNDTDVEIVKGLEAGDEVVIGEAKPGAAQ”, for which the “soluble on expression in E. coli” value is given as “soluble”.
As for “MPDNLSAIFGTILDYAEEVAAGTSNENDERPPRTSLTKKQQKAVSILRNFSTNDQKQEISFQELSQNVLDDWDISNIKSSSVQQLVELLNLPRVQGVLWAAQEISAGRFAPQLPDVPFEVDEDDGVAVKIVRIVRRGEPLGATIKCERGKVYVARIMANGVADRSGCIQEGDRVLEVNGITVADKEPREIVKLLDKCDNGIITFKLIPAEINQKLKQKKSSHRYARALFDYDPWQDKRHPCPEAAISFRGGDILEILDEKDQYWWQTRKIGFGALARRKESHDDENRDDSKKVGLVPSEWLQCQSEIPENGIDTSDDFQSFLENHKGRFYESVFRWRNKKKRRRVVVLLGAPGVGRNEIRRQFFKVFADRFTNAIPHTSRPQRPNESDGVNYYFTSRSEMERMIERKEMLEYGEFRDNLYGTALKSVRKASEKGTVLLTPHPLAIENIRTWEFAPIVIFVQPPEFGEFKHTREVYRSQTTRSHSAASSSNISQNTAATSAARAFSDVEIRQIIDNSAQMEQKYRGYCDAIIRNVDLDTTMNELTGLIYQLESKATWMPMKWLDDIGE”, the “soluble on expression in E. coli” value is “not soluble”.
Turning to “MRRVTEAAIPDNDGDEQPPVIPRYDPTSNFDAQRAQQQHPQSRPVYSTPAQMIRTTQPGGVKHNVILMKASDGTQKMVLKPGQFPPGTVISTGQRVVPYRQPTAVQQRQLYTATPGTRVVRIPNANGGAPRQQDHQVMRRVVQASGPRAMEYMDDQGTPPPGQQVRYVLQGGNSGTPNVNPPKVSSRGGPRGGLTMQMVQQQQQHNPVLDVMFSQVCRWDRQYGWSKTHVKRARQKNDSDKMHLRKFRMNQRELLITDHMERLKKEINKRRTRMENEAEQQCGLLTPWRKARARPHRAAKPKAEVKKEVINPADITLGGDTYDYVKEQKPTESIATNVSRRRRTSANLSKSEDDRDKPESQSTAPKSKERRTSEPPASHVAFHTPGSATPHDINLSIEHCTCQKIFDASKLYIQCELCARWYHGDCVGVAEQTILGLEHWSCEECIEEQERVKDQPALYCVCQKPYDDTKFYVGCDSCQGWFHPECVGTTRAEAEQAADYNCPACTREAEGYESEASDVSGSSRVSVQLTRADYTHVFELLELLLEHRMSTPFRNPVDLNEFPDYEKFIKKPMDLSTITKKVERTEYLYLSQFVNDVNQMFENAKTYNPKGNAVFKCAETMQEVFDKKLIDVREQMTARQQMLLLATAQQQDPMSSIRKRVQSESQRTVDSLDIDSDQLLPLDANLMRLYDF”, the “soluble on expression in E. coli” value was “not soluble”.
Turning to “MRLTSKGRYAVTAMLDVALNSEAGPVPLADISERQGISLSYLEQLFSRLRKNGLVSSVRGPGGGYLLGKDASSIAVGEVISAVDESVDATRCQGKGGCQGGDKCLTHALWRDLSDRLTGFLNNITLGELVNNQEVLDVSGRQHTHDAPRTRTQDAIDVKLRA”, the “soluble on expression in E. coli” value is “soluble”.
Turning to “MIVETMTYQEIADEFKKDWERSIRHKITDCFGMANKYRRYILKEGKTDKWIRFKPIEFTSPRGNNCVIQFVSKGWADYKRNGLIFVLYMYYYKSEGLYAVMIAGDNFDEFSFYTPHLFDRYRERKLKDISKPKLQTMFDFFKTNATSRFNRVNNDKYANSIFSVCPNGVTLGSEISDKIIENRTYITFEMLKSDQVQDEEKLGTALKAYLDKQL”, the “soluble on expression in E. coli” value was “not soluble”.
Consider “TDRVIMSIFTSDKLVDQSWGSLAYLAQLHVEKKFPVDIELYSEVDTIEKMEESLHASIDRKTELIIGHGREFSDIFTKVAPSYPTVRFVTIHGSATYENQTVYTFEKGKIELIAALAATMKSKTRKVALIDAYDGREDEPYFERGLEKYANDIEFFYYVVNSRHDGKQAKAVMDKLIKEGVDVVYSRGNAFNRDVIHYAKQHDIYVIGFLDDQSYLGEEHVLTSVLNDVTQAYVKI”, for which the “soluble on expression in E. coli” value was “not soluble”.
Consider “MSLAEQLAIADLQVDIKQIPLKQPFVTALHRVDAVNAVRVTVRLANGVTGVGTCTPNEKVTGDSLSSARAVIEETIKPLVLGKNLTDWKELLNTVKTSIVHNAPAKAAVEIALYNTRANLFGLTLSQLLGGKGGSVETDYTISIGKAEQMIADAQKMVDQGFKTLKLKLGAGHLKRDIKLVEDLAYAAGPMVHLRLDMNQACDVRQTMQAAEYWHKQGLLIDFIEQPVPAWDLDSMAYLTRHSPYPIMADESVESYEDAQRVLAKNACDYINIKLMKTGGLSEAQKINDLAESRGVPTMVGSMIESIESLAAACAFYRANPNTIFADLDAIFMVDQDPDLNSYAECVGDNIVVREGHHHHHH”, for which the “soluble on expression in E. coli” value is listed as “soluble”.
Take “MTRLLYYEDAYLKEAKAKVLEVKDNALLLDQTIFYPTGGGQPHDRGWINGVEVLDVYKDEEGNVWHVVKELEKFKPGDEVELKLDWEYRYKLMRIHSALHLLENVLDQILGKGNWEVVGSGMTHEKGRLDVGYPENLNAYKEKIIELFNRYVDEGGEIKIWWEGEKRYTQIRDFDPIPCGGTHVKDIREIGHIKKLKRSSIGRGKQRLEIWLEDLEHHHHHH”: the “soluble on expression in E. coli” value is listed as “not soluble”.
With “MIELTITNATITAGDTPLLTNASLHVGSGECVALMGESGSGKTTLAQAILGYLAPGCRWCSGSIDVDGLNPLQLAPRSLRELRKRCAYVDQDPGAALPPGHSVRSIVRSRASLSDAQMLSIFGDFGLGDIDR”, the “soluble on expression in E. coli” value is recorded as “not soluble”.
Take “MDTNSLLSAGSDMAKAANLSDADIIQLSDAACKQSDQESKIAPAGNKYSVRLTKLMRGFGNMTLNGQKVNYKVYMTEDVNAWAMGNGCVRVYTGLMDLMNDDELRGVIGHEMGHVALGHTKKAMQTAYAVSAARQAAGAAGNSVVASLSASQLGEMTEKFINAQFSQSQETAADDFSFDLLTEKKMNRKGLVTAFQKLAELDGGESSMFSSHPSSPDRAARMEKRLQAGKLEHHHHHH”: the “soluble on expression in E. coli” value is given as “soluble”.
For the sequence DCYCRIPACIAGEKKYGTCIYQGKLWAFCC, the “soluble on expression in E. coli” value was “soluble”.
On to “MSLEGTQMLATNKKCWDTVAPYFFQVDCLPKYGPYTASEDEIRLFDSIRKKKVLDIGCGSGHSLQYMAEQGAEELWGLDLSSTQIEIANKTLKDWNPKLVCGAMEEEGDIPKGYFDIVYSIYALGWTSDLRKTLELIYSYVKPGGSFIFSWEHPVYSNLQYGTEEVAIKSSYHEETPITFETFKGENVQATLHKRKISTYINELNRAGFKIERIEEPEPSSSLDGELAEPSTKYYSLYKARMVPTTFIIKARKEGHHHHHH”, for which the “soluble on expression in E. coli” value is given as “soluble”.
For “MSNNNSGSSNQLLVRGAEQALDQMKYEIAQEFGVQLGADATARANGSVGGEITKRLVSLAEQQLGGGVTR”, the “soluble on expression in E. coli” value was “soluble”.
For “MGKIFCIVQARMGSERLQGKVIKPILKKPMVIYTLDRLKKSKYIDKIVLATSSMERETPLVESCEEYGYDVFKGSEANVLKRYEQAAEKYGANIEDAVIRVTGDCPLIDPIIVDNVVTKFLSSDYDYVRLDVPNTFVRGFDVEIFSMKALKTVNSLINGGKIPKEEADMYKEHVTLYMYKHPNEFKVGYVKGDEFYSKDYRLCVDTKEDFELVKNIYEHFNDEFVSSKNVINYLDRNSEIAQINNDIKQKEVLEHHHHHH”, the “soluble on expression in E. coli” value is reported as “soluble”.
Consider “MAHHHHHHMLRITPSRYASKVTAGNAKNQAGSPRQKAKLFHVIPGTPVTPVEKLKEQRRRFGQDRYSRQPEYRPGRNVRMDPNTFTLYATTKGVMTIRTSRINPSYKWLDVEPDIQKVYRSRCMRAALQARGKASMMVAGNVHYRAELDHVTEPHWRERVMRVPKATERFQDPNYFTRGLVPSLRPLSRYSYE”, for which the “soluble on expression in E. coli” value was “soluble”.
Regarding “MSYYHHHHHHNYNIPTTENLYFQGAMVAPAGEQGRSSTALSDNPFDAKAWRLVDGFDDLTDITYHRHVDDATVRVAFNRPEVRNAFRPHTVDELYRVLDHARMSPDVGVVLLTGNGPSPKDGGWAFCSGGDQRIRGRSGYQYASGDTADTVDVARAGRLHILEVQRLIRFMPKVVICLVNGWAAGGGHSLHVVCDLTLASREYARFKQTDADVGSFDGGYGSAYLARQVGQKFAREIFFLGRTYTAEQMHQMGAVNAVAEHAELETVGLQWAAEINAKSPQAQRMLKFAFNLLDDGLVGQQLFAGEATRLAYMTDEAVEGRDAFLQKRPPDWSPFPRYF”, the “soluble on expression in E. coli” value is “soluble”.
Consider “MAHHHHHHMRCFRASCCAPSPWQRACSTVASVSDTADLVIVRESPLDNVVLLEMNNGRANVLTPEFISAFLNKLSDLCDPDKSKCSGIILTSKSPGVFSAGLDLNELNTNLSQDRFAQYWSQFQKLFTTLHALPVPLVGAINGHAAAAGCIVALACDYRVMARRHPTKPTHLTIGIAAAKHGFVVPSYVAASMEHVVGFRKAEELLCMGLLLSAGEALKVGLVDEVVEHHDETVVPCLQFMEKLLELPSPAPYWMIKDLSRRHILAPLCTPALRTQDMVSFYNLFSNLQVKKMLAEHAQKFAKK”, for which the “soluble on expression in E. coli” value is “not soluble”.
“CIPLWGTVSIQGNRSEMEDAFAVSPHFLKLPIKMLMGDHEGMSPSLTHLTGHFFGVYDGHGGHKVADYCRDRLHFALAEEIERIKDELCKRNTGEGRQVQWDKVFTSCFLTVDGEIEGKIGRAVVGSSDKVLEAVASETVGSTAVVALVCSSHIVVSNCGDSRAVLFRGKEAMPLSVDHKPDREDEYARIENAGGKVIQWQGARVFGVLAMSRSIGDRYLKPYVIPEPEVTFMPRSREDECLILASDGLWDVMNNQEVCEIARRRILMWHKKNGAPPLAERGKGIDPACQAAADYLSMLALQKGSKDNISIIVIDLKAQRK”: the “soluble on expression in E. coli” value is recorded as “soluble”.
Consider “MKFSDFFHAWLHESYYKNAVSIGKNGDFFTAVSVGNLFGTLLAKHFLNLIDEKILKPPLELVEIGANEGYLSRDFLAALLELRPEIFSQISFFIIEPHEKLRTLQKKTLEGVEFTHKNSLKECHFKNAFFFCNELFDSFTCELIDHDKMAFVENFKLIFKNMDENLITKCKALNLTKGELSLELENFFKDLNQTCERFIFAGFDYGTLNPQSFSLRIYQKHEVFSPFEVSLKDFFGKSDLTYNVNFTHLQKLIKEYDFKPLAFKKQSLAFMDFGFEDLLEYAKNKNIKTYESFLSQAKILFFNFDEKFHFFEFQKNMGHHHHHHSH”, for which the “soluble on expression in E. coli” value is “soluble”.
“MGSDKIHHHHHHMLNDANLQAADMPDTEFTLTRNGFGRLVLTLGDGTAHEGVVPVRAFPIGAPDDGIGMMSTDGHELAWIPRLDRLPAPQRAMVEEELAAREFMPEIQRIVGVSTFATPSEWTVQTDRGQTTLVLRGEEDIRRLAGTTLLISDSHGIHYLIRDLMALDRASRKILDRFL”: the “soluble on expression in E. coli” value is given as “not soluble”.
